# Measurements: patent US12679878B2, “CRF2 receptor agonists and their use in therapy” (SANOFI, priority 2020, dated 2026)
# Starred links: 1 amine or outer side, 2 acyl side, 3 side chain; linkers in the order of their positions; H or OH if unused. Non-standard residues stand in square brackets, D forms with d. Groups on a side chain read outwards from the residue. No end group written: not given here. *: point of attachment. C18 diacid = O=C(O)CCCCCCCCCCCCCCCCC(=O)*; γGlu = O=C(O)[C@H](CCC(=O)[*:2])N[*:1]; AEEA = NCCOCCOCC(=O)O; Aib = CC(C)(N)C(=O)O
# Target: human corticotropin-releasing factor 2α (CRF2 α receptor) (human), Q13324
# Experiment: cell-based or functional assay
# Chain of human corticotropin-releasing factor 2α (CRF2 α receptor) (human), Q13324 (Q13324 20-411): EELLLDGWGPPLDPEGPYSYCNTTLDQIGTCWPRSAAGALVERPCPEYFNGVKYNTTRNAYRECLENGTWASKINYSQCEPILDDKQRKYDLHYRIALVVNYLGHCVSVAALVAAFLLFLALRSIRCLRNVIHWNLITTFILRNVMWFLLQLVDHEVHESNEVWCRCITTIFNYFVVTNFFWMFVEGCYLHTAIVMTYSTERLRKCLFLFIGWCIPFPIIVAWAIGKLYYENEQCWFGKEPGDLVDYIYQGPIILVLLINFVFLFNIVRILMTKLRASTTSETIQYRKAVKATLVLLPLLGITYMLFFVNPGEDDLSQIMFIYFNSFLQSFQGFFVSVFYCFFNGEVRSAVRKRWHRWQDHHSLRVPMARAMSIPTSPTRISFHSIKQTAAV
row,Binder,"EC50 [nM], 0% HSA [nM]"
1,IVLSLDVPIKLK([AEEA-AEEA-γGlu-C18 diacid])QILLEQERQKKQREQAETN[Aib]QILAQV-NH2 (N-terminus assumed; SMILES CC[C@H](C)[C@H](N)C(=O)N[C@H](C(=O)N[C@@H](CC(C)C)C(=O)N[C@@H](CO)C(=O)N[C@@H](CC(C)C)C(=O)N[C@@H](CC(=O)O)C(=O)N[C@H](C(=O)N1CCC[C@H]1C(=O)N[C@H](C(=O)N[C@@H](CCCCN)C(=O)N[C@@H](CC(C)C)C(=O)N[C@@H](CCCCNC(=O)COCCOCCNC(=O)COCCOCCNC(=O)CC[C@H](NC(=O)CCCCCCCCCCCCCCCCC(=O)O)C(=O)O)C(=O)N[C@@H](CCC(N)=O)C(=O)N[C@H](C(=O)N[C@@H](CC(C)C)C(=O)N[C@@H](CC(C)C)C(=O)N[C@@H](CCC(=O)O)C(=O)N[C@@H](CCC(N)=O)C(=O)N[C@@H](CCC(=O)O)C(=O)N[C@@H](CCCNC(=N)N)C(=O)N[C@@H](CCC(N)=O)C(=O)N[C@@H](CCCCN)C(=O)N[C@@H](CCCCN)C(=O)N[C@@H](CCC(N)=O)C(=O)N[C@@H](CCCNC(=N)N)C(=O)N[C@@H](CCC(=O)O)C(=O)N[C@@H](CCC(N)=O)C(=O)N[C@@H](C)C(=O)N[C@@H](CCC(=O)O)C(=O)N[C@H](C(=O)N[C@@H](CC(N)=O)C(=O)NC(C)(C)C(=O)N[C@@H](CCC(N)=O)C(=O)N[C@H](C(=O)N[C@@H](CC(C)C)C(=O)N[C@@H](C)C(=O)N[C@@H](CCC(N)=O)C(=O)N[C@H](C(N)=O)C(C)C)[C@@H](C)CC)[C@@H](C)O)[C@@H](C)CC)[C@@H](C)CC)C(C)C)C(C)C) [SEQ ID NO: 70],0.91
2,IVLSLDVPIKLK([AEEA-AEEA-γGlu-C18 diacid])K[Aib]LLEQERQKKQREQAETN[Aib]QILAQV-NH2 (N-terminus assumed; SMILES CC[C@H](C)[C@H](N)C(=O)N[C@H](C(=O)N[C@@H](CC(C)C)C(=O)N[C@@H](CO)C(=O)N[C@@H](CC(C)C)C(=O)N[C@@H](CC(=O)O)C(=O)N[C@H](C(=O)N1CCC[C@H]1C(=O)N[C@H](C(=O)N[C@@H](CCCCN)C(=O)N[C@@H](CC(C)C)C(=O)N[C@@H](CCCCNC(=O)COCCOCCNC(=O)COCCOCCNC(=O)CC[C@H](NC(=O)CCCCCCCCCCCCCCCCC(=O)O)C(=O)O)C(=O)N[C@@H](CCCCN)C(=O)NC(C)(C)C(=O)N[C@@H](CC(C)C)C(=O)N[C@@H](CC(C)C)C(=O)N[C@@H](CCC(=O)O)C(=O)N[C@@H](CCC(N)=O)C(=O)N[C@@H](CCC(=O)O)C(=O)N[C@@H](CCCNC(=N)N)C(=O)N[C@@H](CCC(N)=O)C(=O)N[C@@H](CCCCN)C(=O)N[C@@H](CCCCN)C(=O)N[C@@H](CCC(N)=O)C(=O)N[C@@H](CCCNC(=N)N)C(=O)N[C@@H](CCC(=O)O)C(=O)N[C@@H](CCC(N)=O)C(=O)N[C@@H](C)C(=O)N[C@@H](CCC(=O)O)C(=O)N[C@H](C(=O)N[C@@H](CC(N)=O)C(=O)NC(C)(C)C(=O)N[C@@H](CCC(N)=O)C(=O)N[C@H](C(=O)N[C@@H](CC(C)C)C(=O)N[C@@H](C)C(=O)N[C@@H](CCC(N)=O)C(=O)N[C@H](C(N)=O)C(C)C)[C@@H](C)CC)[C@@H](C)O)[C@@H](C)CC)C(C)C)C(C)C) [SEQ ID NO: 71],3.15
3,IVLSLDVPIKLK([AEEA-AEEA-γGlu-C18 diacid])QILLEQERQKKQRQQAETN[Aib]QILAQV-NH2 (N-terminus assumed; SMILES CC[C@H](C)[C@H](N)C(=O)N[C@H](C(=O)N[C@@H](CC(C)C)C(=O)N[C@@H](CO)C(=O)N[C@@H](CC(C)C)C(=O)N[C@@H](CC(=O)O)C(=O)N[C@H](C(=O)N1CCC[C@H]1C(=O)N[C@H](C(=O)N[C@@H](CCCCN)C(=O)N[C@@H](CC(C)C)C(=O)N[C@@H](CCCCNC(=O)COCCOCCNC(=O)COCCOCCNC(=O)CC[C@H](NC(=O)CCCCCCCCCCCCCCCCC(=O)O)C(=O)O)C(=O)N[C@@H](CCC(N)=O)C(=O)N[C@H](C(=O)N[C@@H](CC(C)C)C(=O)N[C@@H](CC(C)C)C(=O)N[C@@H](CCC(=O)O)C(=O)N[C@@H](CCC(N)=O)C(=O)N[C@@H](CCC(=O)O)C(=O)N[C@@H](CCCNC(=N)N)C(=O)N[C@@H](CCC(N)=O)C(=O)N[C@@H](CCCCN)C(=O)N[C@@H](CCCCN)C(=O)N[C@@H](CCC(N)=O)C(=O)N[C@@H](CCCNC(=N)N)C(=O)N[C@@H](CCC(N)=O)C(=O)N[C@@H](CCC(N)=O)C(=O)N[C@@H](C)C(=O)N[C@@H](CCC(=O)O)C(=O)N[C@H](C(=O)N[C@@H](CC(N)=O)C(=O)NC(C)(C)C(=O)N[C@@H](CCC(N)=O)C(=O)N[C@H](C(=O)N[C@@H](CC(C)C)C(=O)N[C@@H](C)C(=O)N[C@@H](CCC(N)=O)C(=O)N[C@H](C(N)=O)C(C)C)[C@@H](C)CC)[C@@H](C)O)[C@@H](C)CC)[C@@H](C)CC)C(C)C)C(C)C) [SEQ ID NO: 72],0.65
4,IVLSLDVPIKLK([AEEA-AEEA-γGlu-C18 diacid])QILLKQERQKKQRQQAETN[Aib]QILAQV-NH2 (N-terminus assumed; SMILES CC[C@H](C)[C@H](N)C(=O)N[C@H](C(=O)N[C@@H](CC(C)C)C(=O)N[C@@H](CO)C(=O)N[C@@H](CC(C)C)C(=O)N[C@@H](CC(=O)O)C(=O)N[C@H](C(=O)N1CCC[C@H]1C(=O)N[C@H](C(=O)N[C@@H](CCCCN)C(=O)N[C@@H](CC(C)C)C(=O)N[C@@H](CCCCNC(=O)COCCOCCNC(=O)COCCOCCNC(=O)CC[C@H](NC(=O)CCCCCCCCCCCCCCCCC(=O)O)C(=O)O)C(=O)N[C@@H](CCC(N)=O)C(=O)N[C@H](C(=O)N[C@@H](CC(C)C)C(=O)N[C@@H](CC(C)C)C(=O)N[C@@H](CCCCN)C(=O)N[C@@H](CCC(N)=O)C(=O)N[C@@H](CCC(=O)O)C(=O)N[C@@H](CCCNC(=N)N)C(=O)N[C@@H](CCC(N)=O)C(=O)N[C@@H](CCCCN)C(=O)N[C@@H](CCCCN)C(=O)N[C@@H](CCC(N)=O)C(=O)N[C@@H](CCCNC(=N)N)C(=O)N[C@@H](CCC(N)=O)C(=O)N[C@@H](CCC(N)=O)C(=O)N[C@@H](C)C(=O)N[C@@H](CCC(=O)O)C(=O)N[C@H](C(=O)N[C@@H](CC(N)=O)C(=O)NC(C)(C)C(=O)N[C@@H](CCC(N)=O)C(=O)N[C@H](C(=O)N[C@@H](CC(C)C)C(=O)N[C@@H](C)C(=O)N[C@@H](CCC(N)=O)C(=O)N[C@H](C(N)=O)C(C)C)[C@@H](C)CC)[C@@H](C)O)[C@@H](C)CC)[C@@H](C)CC)C(C)C)C(C)C) [SEQ ID NO: 75],0.48
5,IVLSLDVPIKLK([AEEA-AEEA-γGlu-C18 diacid])QILLEQERQKKQRQKAETN[Aib]QILAQV-NH2 (N-terminus assumed; SMILES CC[C@H](C)[C@H](N)C(=O)N[C@H](C(=O)N[C@@H](CC(C)C)C(=O)N[C@@H](CO)C(=O)N[C@@H](CC(C)C)C(=O)N[C@@H](CC(=O)O)C(=O)N[C@H](C(=O)N1CCC[C@H]1C(=O)N[C@H](C(=O)N[C@@H](CCCCN)C(=O)N[C@@H](CC(C)C)C(=O)N[C@@H](CCCCNC(=O)COCCOCCNC(=O)COCCOCCNC(=O)CC[C@H](NC(=O)CCCCCCCCCCCCCCCCC(=O)O)C(=O)O)C(=O)N[C@@H](CCC(N)=O)C(=O)N[C@H](C(=O)N[C@@H](CC(C)C)C(=O)N[C@@H](CC(C)C)C(=O)N[C@@H](CCC(=O)O)C(=O)N[C@@H](CCC(N)=O)C(=O)N[C@@H](CCC(=O)O)C(=O)N[C@@H](CCCNC(=N)N)C(=O)N[C@@H](CCC(N)=O)C(=O)N[C@@H](CCCCN)C(=O)N[C@@H](CCCCN)C(=O)N[C@@H](CCC(N)=O)C(=O)N[C@@H](CCCNC(=N)N)C(=O)N[C@@H](CCC(N)=O)C(=O)N[C@@H](CCCCN)C(=O)N[C@@H](C)C(=O)N[C@@H](CCC(=O)O)C(=O)N[C@H](C(=O)N[C@@H](CC(N)=O)C(=O)NC(C)(C)C(=O)N[C@@H](CCC(N)=O)C(=O)N[C@H](C(=O)N[C@@H](CC(C)C)C(=O)N[C@@H](C)C(=O)N[C@@H](CCC(N)=O)C(=O)N[C@H](C(N)=O)C(C)C)[C@@H](C)CC)[C@@H](C)O)[C@@H](C)CC)[C@@H](C)CC)C(C)C)C(C)C) [SEQ ID NO: 73],2.6
6,IVLSLDVPIKLK([AEEA-AEEA-γGlu-C18 diacid])QILLEQERQKKQREQAETN[Aib]QILERV-NH2 (N-terminus assumed; SMILES CC[C@H](C)[C@H](N)C(=O)N[C@H](C(=O)N[C@@H](CC(C)C)C(=O)N[C@@H](CO)C(=O)N[C@@H](CC(C)C)C(=O)N[C@@H](CC(=O)O)C(=O)N[C@H](C(=O)N1CCC[C@H]1C(=O)N[C@H](C(=O)N[C@@H](CCCCN)C(=O)N[C@@H](CC(C)C)C(=O)N[C@@H](CCCCNC(=O)COCCOCCNC(=O)COCCOCCNC(=O)CC[C@H](NC(=O)CCCCCCCCCCCCCCCCC(=O)O)C(=O)O)C(=O)N[C@@H](CCC(N)=O)C(=O)N[C@H](C(=O)N[C@@H](CC(C)C)C(=O)N[C@@H](CC(C)C)C(=O)N[C@@H](CCC(=O)O)C(=O)N[C@@H](CCC(N)=O)C(=O)N[C@@H](CCC(=O)O)C(=O)N[C@@H](CCCNC(=N)N)C(=O)N[C@@H](CCC(N)=O)C(=O)N[C@@H](CCCCN)C(=O)N[C@@H](CCCCN)C(=O)N[C@@H](CCC(N)=O)C(=O)N[C@@H](CCCNC(=N)N)C(=O)N[C@@H](CCC(=O)O)C(=O)N[C@@H](CCC(N)=O)C(=O)N[C@@H](C)C(=O)N[C@@H](CCC(=O)O)C(=O)N[C@H](C(=O)N[C@@H](CC(N)=O)C(=O)NC(C)(C)C(=O)N[C@@H](CCC(N)=O)C(=O)N[C@H](C(=O)N[C@@H](CC(C)C)C(=O)N[C@@H](CCC(=O)O)C(=O)N[C@@H](CCCNC(=N)N)C(=O)N[C@H](C(N)=O)C(C)C)[C@@H](C)CC)[C@@H](C)O)[C@@H](C)CC)[C@@H](C)CC)C(C)C)C(C)C) [SEQ ID NO: 74],2.12
